Test results: IntAct's records for PubMed 15975580

Target: zo2_human TJP2 (UniProt Q9UDY2)
Sequence (Q9UDY2 whole entry): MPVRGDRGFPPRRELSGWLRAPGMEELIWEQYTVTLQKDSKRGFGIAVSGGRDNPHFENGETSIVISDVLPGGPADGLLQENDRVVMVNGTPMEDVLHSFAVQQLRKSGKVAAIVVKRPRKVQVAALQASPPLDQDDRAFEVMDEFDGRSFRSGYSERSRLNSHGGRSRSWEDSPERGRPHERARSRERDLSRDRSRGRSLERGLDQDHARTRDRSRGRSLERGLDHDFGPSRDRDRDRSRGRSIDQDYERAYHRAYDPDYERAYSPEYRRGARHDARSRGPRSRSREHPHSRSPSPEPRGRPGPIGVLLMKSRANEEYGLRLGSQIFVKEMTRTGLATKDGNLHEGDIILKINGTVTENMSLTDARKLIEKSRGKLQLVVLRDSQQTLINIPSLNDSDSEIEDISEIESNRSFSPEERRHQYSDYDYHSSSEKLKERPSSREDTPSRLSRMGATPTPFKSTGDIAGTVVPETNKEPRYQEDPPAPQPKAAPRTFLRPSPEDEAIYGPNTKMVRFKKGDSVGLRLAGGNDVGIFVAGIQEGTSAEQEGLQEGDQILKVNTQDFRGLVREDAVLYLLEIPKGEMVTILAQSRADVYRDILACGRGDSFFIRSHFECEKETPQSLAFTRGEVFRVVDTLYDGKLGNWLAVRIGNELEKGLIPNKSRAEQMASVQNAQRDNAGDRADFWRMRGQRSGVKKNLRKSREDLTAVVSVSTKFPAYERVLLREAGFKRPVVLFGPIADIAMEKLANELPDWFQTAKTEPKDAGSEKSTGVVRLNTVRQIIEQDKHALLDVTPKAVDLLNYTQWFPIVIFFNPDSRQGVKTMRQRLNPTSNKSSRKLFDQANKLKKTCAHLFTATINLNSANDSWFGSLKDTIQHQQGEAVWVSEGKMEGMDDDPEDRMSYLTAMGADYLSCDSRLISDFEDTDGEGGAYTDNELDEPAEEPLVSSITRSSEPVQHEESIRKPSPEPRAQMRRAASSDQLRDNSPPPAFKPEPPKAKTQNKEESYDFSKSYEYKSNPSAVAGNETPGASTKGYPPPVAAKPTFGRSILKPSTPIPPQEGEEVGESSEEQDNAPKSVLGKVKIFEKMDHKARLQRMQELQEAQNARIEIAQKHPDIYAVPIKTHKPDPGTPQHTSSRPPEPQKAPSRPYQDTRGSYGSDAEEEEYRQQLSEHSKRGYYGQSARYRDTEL

Protein scribble homolog (Homo sapiens), Q14160-1 P305L, sequence (Q14160 other isoform, or with tags, fused parts or gaps P305L): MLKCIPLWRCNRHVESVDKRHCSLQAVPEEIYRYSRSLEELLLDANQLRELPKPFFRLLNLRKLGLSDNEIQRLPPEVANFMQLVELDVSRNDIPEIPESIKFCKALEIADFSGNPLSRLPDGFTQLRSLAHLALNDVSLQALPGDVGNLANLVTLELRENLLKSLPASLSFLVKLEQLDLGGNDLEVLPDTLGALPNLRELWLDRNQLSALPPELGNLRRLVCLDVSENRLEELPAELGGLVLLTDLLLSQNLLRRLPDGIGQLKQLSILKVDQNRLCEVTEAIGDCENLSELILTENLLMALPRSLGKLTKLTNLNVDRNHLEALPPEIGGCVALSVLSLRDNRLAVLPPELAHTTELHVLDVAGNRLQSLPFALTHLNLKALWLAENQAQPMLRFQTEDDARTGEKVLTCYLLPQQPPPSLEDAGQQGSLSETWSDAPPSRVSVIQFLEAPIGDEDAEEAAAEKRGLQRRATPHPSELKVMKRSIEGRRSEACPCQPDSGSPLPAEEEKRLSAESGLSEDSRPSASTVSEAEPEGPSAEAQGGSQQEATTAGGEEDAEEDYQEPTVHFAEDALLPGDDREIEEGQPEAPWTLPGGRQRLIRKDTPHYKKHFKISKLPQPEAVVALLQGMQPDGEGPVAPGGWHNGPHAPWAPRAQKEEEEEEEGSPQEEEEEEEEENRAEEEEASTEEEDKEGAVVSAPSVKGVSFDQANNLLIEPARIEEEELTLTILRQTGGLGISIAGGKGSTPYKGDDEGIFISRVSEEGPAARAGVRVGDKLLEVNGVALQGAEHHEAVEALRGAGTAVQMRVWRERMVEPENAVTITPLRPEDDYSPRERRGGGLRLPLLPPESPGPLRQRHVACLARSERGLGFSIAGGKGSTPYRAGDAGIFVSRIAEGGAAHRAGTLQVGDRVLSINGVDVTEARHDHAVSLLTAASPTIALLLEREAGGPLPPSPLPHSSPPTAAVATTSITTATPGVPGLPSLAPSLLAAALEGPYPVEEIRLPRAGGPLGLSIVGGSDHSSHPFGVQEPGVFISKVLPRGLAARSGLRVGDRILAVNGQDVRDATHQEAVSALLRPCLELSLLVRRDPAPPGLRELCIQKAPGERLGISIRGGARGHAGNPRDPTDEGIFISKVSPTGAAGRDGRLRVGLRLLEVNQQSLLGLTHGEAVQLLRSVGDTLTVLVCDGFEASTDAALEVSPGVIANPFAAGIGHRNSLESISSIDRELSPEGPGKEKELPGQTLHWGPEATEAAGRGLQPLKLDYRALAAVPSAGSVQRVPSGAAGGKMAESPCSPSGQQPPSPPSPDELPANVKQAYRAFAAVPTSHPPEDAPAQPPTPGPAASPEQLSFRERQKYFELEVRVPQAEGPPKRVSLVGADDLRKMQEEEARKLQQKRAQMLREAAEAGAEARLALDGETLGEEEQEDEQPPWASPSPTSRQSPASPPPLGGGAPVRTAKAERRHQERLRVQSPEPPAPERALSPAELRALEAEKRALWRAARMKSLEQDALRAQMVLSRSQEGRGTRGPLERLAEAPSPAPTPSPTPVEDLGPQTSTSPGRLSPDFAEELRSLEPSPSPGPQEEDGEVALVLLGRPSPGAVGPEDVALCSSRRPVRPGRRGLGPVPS

Substance: Protein scribble homolog (Homo sapiens), Q14160-1 P305L
- effect of a mutation on the interaction: decreasing interaction
